What was measured:
Assay in all cases: holdup assay
Parameters in all cases: key: below the threshold = too weak to quantify, mostly under pKd 3.1 to 4
[1] = molecular target: T1, APBA1_1, Q02410
T1 sequence (Q02410 651-752, limits assumed, looked up): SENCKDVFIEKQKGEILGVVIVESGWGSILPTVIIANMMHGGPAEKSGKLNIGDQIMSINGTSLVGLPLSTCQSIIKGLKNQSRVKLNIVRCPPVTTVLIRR

[2] = molecular target: T2, APBA1_2, Q02410
T2 sequence (Q02410 742-832, limits assumed, looked up): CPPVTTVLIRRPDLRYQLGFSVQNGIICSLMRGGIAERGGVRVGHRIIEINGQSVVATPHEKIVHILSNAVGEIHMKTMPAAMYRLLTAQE

[3] = molecular target: T3, ARHGAP21, Q5T5U3
T3 sequence (Q5T5U3 45-169, limits assumed, looked up): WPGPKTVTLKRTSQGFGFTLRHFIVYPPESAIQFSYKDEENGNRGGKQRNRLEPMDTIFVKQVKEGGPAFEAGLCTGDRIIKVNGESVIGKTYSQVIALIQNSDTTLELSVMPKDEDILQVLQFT

[4] = molecular target: T4, DLG3_3, Q92796
T4 sequence (Q92796 374-475, limits assumed, looked up): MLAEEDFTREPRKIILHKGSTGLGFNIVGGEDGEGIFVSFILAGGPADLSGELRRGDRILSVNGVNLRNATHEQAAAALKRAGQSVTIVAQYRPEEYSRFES

[5] = molecular target: DLG4_1, P78352
[6] = molecular target: GRID2IP_2, A4D2P6
[7] = molecular target: GRIP2_3, Q9C0E4
[8] = molecular target: GRIP2_5, Q9C0E4
[9] = molecular target: IL16_1, Q14005
[10] = molecular target: Inadl_4, Q8NI35
[11] = molecular target: LDB3, O75112
[12] = molecular target: MAGI1_1, Q96QZ7
[13] = molecular target: MAGI2_3, Q86UL8
[14] = molecular target: MAST2, Q6P0Q8
[15] = molecular target: T5, MPDZ_10, O75970
T5 sequence (O75970 1624-1722, limits assumed, looked up): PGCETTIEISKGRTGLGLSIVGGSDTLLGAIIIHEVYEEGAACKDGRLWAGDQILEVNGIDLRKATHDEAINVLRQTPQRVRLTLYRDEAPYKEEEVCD

[16] = molecular target: T6, MPDZ_5, O75970
T6 sequence (O75970 695-796, limits assumed, looked up): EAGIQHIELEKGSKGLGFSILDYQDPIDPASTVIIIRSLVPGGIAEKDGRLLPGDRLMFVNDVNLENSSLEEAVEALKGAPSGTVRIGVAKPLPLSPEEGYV

[17] = molecular target: T7, MPP7, Q5T2T1
T7 sequence (Q5T2T1 134-230, limits assumed, looked up): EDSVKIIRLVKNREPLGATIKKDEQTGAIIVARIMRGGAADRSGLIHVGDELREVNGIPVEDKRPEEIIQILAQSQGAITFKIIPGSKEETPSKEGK

[18] = molecular target: NHERF2_2, Q15599
[19] = molecular target: T8, NHERF3_1, Q5T2W1
T8 sequence (Q5T2W1 4-100, limits assumed, looked up): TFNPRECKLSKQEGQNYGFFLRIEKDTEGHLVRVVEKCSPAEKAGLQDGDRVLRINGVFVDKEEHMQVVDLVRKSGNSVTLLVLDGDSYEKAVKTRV

[20] = molecular target: NHERF4_2, Q86UT5
[21] = molecular target: NHERF4_4, Q86UT5
[22] = molecular target: NOS1, P29475
[23] = molecular target: PARD3_3, Q8TEW0
[24] = molecular target: T9, PDZD2_2, O15018
T9 sequence (O15018 329-429, limits assumed, looked up): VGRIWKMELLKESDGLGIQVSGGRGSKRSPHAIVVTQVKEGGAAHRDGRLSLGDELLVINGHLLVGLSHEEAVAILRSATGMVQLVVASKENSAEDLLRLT

[25] = molecular target: PICK1, Q9NRD5
[26] = molecular target: SCRIB_2, Q14160
[27] = molecular target: T10, TX1BP3, O14907
T10 sequence (O14907 10-122, limits assumed, looked up): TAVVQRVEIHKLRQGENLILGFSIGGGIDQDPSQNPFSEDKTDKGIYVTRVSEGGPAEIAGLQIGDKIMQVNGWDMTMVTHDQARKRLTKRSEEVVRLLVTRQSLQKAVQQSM

[28] = plain residues with an end cap or a label only (N-terminal biotin on a linker: ado-ado)
[29] = plain residues with an end cap or a label only (N-terminal biotin on a linker: ahx)

Sequence of Inadl_4, Q8NI35 (Q8NI35 547-651): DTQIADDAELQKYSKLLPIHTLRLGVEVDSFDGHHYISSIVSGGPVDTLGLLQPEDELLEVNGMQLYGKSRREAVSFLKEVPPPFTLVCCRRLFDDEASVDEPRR
Sequence of NOS1, P29475 (P29475 9-101): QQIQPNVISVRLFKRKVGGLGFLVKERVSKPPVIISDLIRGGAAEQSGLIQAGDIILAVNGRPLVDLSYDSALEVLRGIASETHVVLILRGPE
Sequence of NHERF2_2, Q15599 (Q15599 142-238): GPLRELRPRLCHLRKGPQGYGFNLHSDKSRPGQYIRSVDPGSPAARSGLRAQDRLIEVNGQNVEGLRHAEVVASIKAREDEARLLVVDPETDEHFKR
Sequence of LDB3, O75112 (O75112 1-94): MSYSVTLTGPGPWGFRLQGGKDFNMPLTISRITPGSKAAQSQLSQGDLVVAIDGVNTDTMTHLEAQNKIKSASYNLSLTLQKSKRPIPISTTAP
Sequence of MAST2, Q6P0Q8 (Q6P0Q8 1099-1202): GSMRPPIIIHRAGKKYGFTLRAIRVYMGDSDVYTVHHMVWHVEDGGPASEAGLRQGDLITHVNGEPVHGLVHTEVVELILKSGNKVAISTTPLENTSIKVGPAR
Sequence of PICK1, Q9NRD5 (Q9NRD5 17-115): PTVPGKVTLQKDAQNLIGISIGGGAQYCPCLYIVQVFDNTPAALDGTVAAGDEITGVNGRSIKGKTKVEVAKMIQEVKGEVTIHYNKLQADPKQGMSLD
Sequence of IL16_1, Q14005 (Q14005 210-306): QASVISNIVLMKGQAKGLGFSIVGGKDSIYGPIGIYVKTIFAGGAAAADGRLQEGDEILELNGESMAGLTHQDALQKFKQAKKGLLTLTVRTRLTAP
Sequence of GRIP2_5, Q9C0E4 (Q9C0E4 544-642): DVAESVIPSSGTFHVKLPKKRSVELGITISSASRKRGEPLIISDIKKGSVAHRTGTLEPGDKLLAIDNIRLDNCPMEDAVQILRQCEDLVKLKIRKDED
Sequence of SCRIB_2, Q14160 (Q14160 857-960): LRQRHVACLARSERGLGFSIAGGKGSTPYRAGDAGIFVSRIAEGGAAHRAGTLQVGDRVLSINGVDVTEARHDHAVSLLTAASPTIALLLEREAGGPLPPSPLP
Sequence of GRID2IP_2, A4D2P6 (A4D2P6 272-370): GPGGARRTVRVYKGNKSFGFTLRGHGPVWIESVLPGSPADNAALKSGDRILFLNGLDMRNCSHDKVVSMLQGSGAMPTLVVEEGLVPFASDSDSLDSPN
Sequence of DLG4_1, P78352 (P78352 62-152): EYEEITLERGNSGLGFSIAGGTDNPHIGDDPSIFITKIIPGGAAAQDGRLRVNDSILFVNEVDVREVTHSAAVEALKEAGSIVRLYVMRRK
Sequence of MAGI2_3, Q86UL8 (Q86UL8 600-682): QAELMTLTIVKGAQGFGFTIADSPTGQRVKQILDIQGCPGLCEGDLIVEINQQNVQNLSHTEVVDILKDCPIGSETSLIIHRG
Sequence of MAGI1_1, Q96QZ7 (Q96QZ7 1-106): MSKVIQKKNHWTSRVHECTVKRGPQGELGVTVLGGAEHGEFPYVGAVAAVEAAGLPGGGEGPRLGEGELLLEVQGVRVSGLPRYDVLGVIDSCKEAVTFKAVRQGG
Sequence of PARD3_3, Q8TEW0 (Q8TEW0 582-685): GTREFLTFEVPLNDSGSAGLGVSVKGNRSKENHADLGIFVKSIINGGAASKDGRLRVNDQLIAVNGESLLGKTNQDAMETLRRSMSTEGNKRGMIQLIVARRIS
Sequence of GRIP2_3, Q9C0E4 (Q9C0E4 238-339): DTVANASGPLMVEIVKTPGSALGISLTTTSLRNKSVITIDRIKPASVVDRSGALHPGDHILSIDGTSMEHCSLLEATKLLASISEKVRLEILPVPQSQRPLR
Sequence of NHERF4_4, Q86UT5 (Q86UT5 464-550): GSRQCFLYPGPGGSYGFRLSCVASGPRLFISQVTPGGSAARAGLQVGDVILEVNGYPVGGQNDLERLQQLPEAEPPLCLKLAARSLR
Sequence of NHERF4_2, Q86UT5 (Q86UT5 220-308): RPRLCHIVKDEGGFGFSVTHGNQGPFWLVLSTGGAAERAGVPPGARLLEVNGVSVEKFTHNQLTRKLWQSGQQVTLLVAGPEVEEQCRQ

LPAVCYDIDI [PTTG2, Q9NZH5]
pKd [1, 28]: below the threshold | pKd [2, 28]: below the threshold | pKd [3, 28]: 4.02 | pKd [4, 28]: below the threshold | pKd [5, 28]: below the threshold | pKd [6, 28]: below the threshold | pKd [7, 28]: below the threshold | pKd [8, 28]: below the threshold | pKd [9, 28]: below the threshold | pKd [10, 28]: below the threshold | pKd [11, 28]: below the threshold | pKd [12, 28]: below the threshold | pKd [13, 28]: below the threshold | pKd [14, 28]: 5 | pKd [15, 28]: below the threshold | pKd [16, 28]: below the threshold | pKd [17, 28]: 4.27 | pKd [18, 28]: below the threshold | pKd [19, 28]: below the threshold | pKd [20, 28]: below the threshold | pKd [21, 28]: 4.9 | pKd [22, 28]: below the threshold | pKd [23, 28]: 4.29 | pKd [24, 28]: 4.17 | pKd [25, 28]: below the threshold | pKd [26, 28]: below the threshold | pKd [27, 28]: 4.09

SVTSERETNI [SLC16A7, O60669]
pKd [1, 28]: below the threshold | pKd [2, 28]: below the threshold | pKd [3, 28]: below the threshold | pKd [4, 28]: below the threshold | pKd [5, 28]: below the threshold | pKd [6, 28]: below the threshold | pKd [7, 28]: below the threshold | pKd [8, 28]: below the threshold | pKd [9, 28]: below the threshold | pKd [10, 28]: below the threshold | pKd [11, 28]: below the threshold | pKd [12, 28]: below the threshold | pKd [13, 28]: below the threshold | pKd [14, 28]: 4.84 | pKd [15, 28]: below the threshold | pKd [16, 28]: below the threshold | pKd [17, 28]: 3.48 | pKd [18, 28]: below the threshold | pKd [19, 28]: 3.49 | pKd [20, 28]: below the threshold | pKd [21, 28]: below the threshold | pKd [22, 28]: below the threshold | pKd [23, 28]: below the threshold | pKd [24, 28]: 4.65 | pKd [25, 28]: below the threshold | pKd [26, 28]: 3.69 | pKd [27, 28]: below the threshold

KKMLQRRTLL [OR8G1, Q15617]
pKd [1, 28]: below the threshold | pKd [2, 28]: 3.52 | pKd [3, 28]: below the threshold | pKd [4, 28]: below the threshold | pKd [5, 28]: 3.87 | pKd [6, 28]: 5.09 | pKd [7, 28]: below the threshold | pKd [8, 28]: below the threshold | pKd [9, 28]: below the threshold | pKd [10, 28]: below the threshold | pKd [11, 28]: below the threshold | pKd [12, 28]: below the threshold | pKd [13, 28]: below the threshold | pKd [14, 28]: 5.13 | pKd [15, 28]: below the threshold | pKd [16, 28]: below the threshold | pKd [17, 28]: below the threshold | pKd [18, 28]: 3.61 | pKd [19, 28]: 4.94 | pKd [20, 28]: below the threshold | pKd [21, 28]: below the threshold | pKd [22, 28]: 3.92 | pKd [23, 28]: below the threshold | pKd [24, 28]: below the threshold | pKd [25, 28]: 3.99 | pKd [26, 28]: below the threshold | pKd [27, 28]: 3.76

GEDRSPPTAL [MKNK1, Q9BUB5]
pKd [1, 28]: below the threshold | pKd [2, 28]: 4.34 | pKd [3, 28]: below the threshold | pKd [4, 28]: below the threshold | pKd [5, 28]: below the threshold | pKd [6, 28]: below the threshold | pKd [7, 28]: below the threshold | pKd [8, 28]: below the threshold | pKd [9, 28]: below the threshold | pKd [10, 28]: below the threshold | pKd [11, 28]: below the threshold | pKd [12, 28]: below the threshold | pKd [13, 28]: below the threshold | pKd [14, 28]: 4.85 | pKd [15, 28]: below the threshold | pKd [16, 28]: below the threshold | pKd [17, 28]: below the threshold | pKd [18, 28]: 3.91 | pKd [19, 28]: 3.71 | pKd [20, 28]: below the threshold | pKd [21, 28]: below the threshold | pKd [22, 28]: 3.8 | pKd [23, 28]: below the threshold | pKd [24, 28]: below the threshold | pKd [25, 28]: below the threshold | pKd [26, 28]: below the threshold | pKd [27, 28]: below the threshold

QNTDDVQTSF [ACE2, Q9BYF1]
pKd [1, 29]: below the threshold | pKd [2, 29]: below the threshold | pKd [3, 29]: 3.64 | pKd [4, 29]: below the threshold | pKd [5, 29]: below the threshold | pKd [6, 29]: below the threshold | pKd [7, 29]: below the threshold | pKd [8, 29]: below the threshold | pKd [9, 29]: below the threshold | pKd [10, 29]: below the threshold | pKd [11, 29]: below the threshold | pKd [12, 29]: below the threshold | pKd [13, 29]: below the threshold | pKd [14, 29]: 5.13 | pKd [15, 29]: below the threshold | pKd [16, 29]: below the threshold | pKd [17, 29]: below the threshold | pKd [18, 29]: 4.29 | pKd [19, 29]: 4.4 | pKd [20, 29]: below the threshold | pKd [21, 29]: below the threshold | pKd [22, 29]: below the threshold | pKd [23, 29]: below the threshold | pKd [24, 29]: below the threshold | pKd [25, 29]: below the threshold | pKd [26, 29]: below the threshold | pKd [27, 29]: below the threshold

From PMC9482650, “Quantitative fragmentomics allow affinity mapping of interactomes” (Nature Communications, 2022)
